Assay results taken from paper PMC9635297 (Molecular Biology of the Cell, 2022).

Target: the molecule itself
Test: SEC

B1: 6xHis-Cdc3 (natural protein)
chain: MSLKEEQVSIKQDPEQEERQHDQFNDVQIKQESQDHDGVDSQYTNGTQNDDSERFEAAESDVKVEPGLGMGITSSQSEKGQVLPDQPEIKFIRRQINGYVGFANLPKQWHRRSIKNGFSFNLLCVGPDGIGKTTLMKTLFNNDDIEANLVKDYEEELANDQEEEEGQGEGHENQSQEQRHKVKIKSYESVIEENGVKLNLNVIDTEGFGDFLNNDQKSWDPIIKEIDSRFDQYLDAENKINRHSINDKRIHACLYFIEPTGHYLKPLDLKFMQSVYEKCNLIPVIAKSDILTDEEILSFKKTIMNQLIQSNIELFKPPIYSNDDAENSHLSERLFSSLPYAVIGSNDIVENYSGNQVRGRSYPWGVIEVDNDNHSDFNLLKNLLIKQFMEELKERTSKILYENYRSSKLAKLGIKQDNSVFKEFDPISKQQEEKTLHEAKLAKLEIEMKTVFQQKVSEKEKKLQKSETELFARHKEMKEKLTKQLKALEDKKKQLELSINSASPNVNHSPVPTKKKGFLR
- stoichiometry N: 2
